Source: patent publication US20130089548
Numbering of substitutions follows the chain as printed.

Assays:
[1] = molecular target: T1, CDO intracellular domain wild type (CDO-IC wt), in vitro-translated (UniProt Q32MD9)
T1 sequence: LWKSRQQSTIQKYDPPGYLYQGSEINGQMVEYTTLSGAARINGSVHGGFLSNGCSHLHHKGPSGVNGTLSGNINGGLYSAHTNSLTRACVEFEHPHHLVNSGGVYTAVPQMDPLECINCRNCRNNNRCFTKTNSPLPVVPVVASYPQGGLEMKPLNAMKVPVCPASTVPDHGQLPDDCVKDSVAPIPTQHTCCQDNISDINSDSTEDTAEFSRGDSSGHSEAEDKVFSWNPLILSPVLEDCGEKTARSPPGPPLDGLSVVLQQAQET

[2] = molecular target: T2, CDO-IC with Asp1178 to Asn mutation (UniProt Q32MD9)
T2 sequence: T1 sequence with D195N

CDO-IC-D1153N = molecular target: T3, CDO-IC-D1153N (UniProt Q32MD9)
T3 sequence: T1 sequence with D170N

CDO-IC-D1153N-D1164N = molecular target: T4, CDO-IC-D1153N-D1164N (UniProt Q32MD9)
T4 sequence: T1 sequence with D170N, D181N

Substance: Recombinant purified active caspase-3
- in vitro cleavage of in vitro-translated CDO-IC by purified active caspase-3 (autoradiograph, FIG. 5) [1]: CDO intracellular domain (CDO-IC, amino acids 985 to 1250) was cleaved in vitro when incubated with purified active caspase-3
- in vitro cleavage of in vitro-translated CDO-IC by purified active caspase-3 (autoradiograph, FIG. 5) [2]: the Asp^1178 to Asn mutation had no effect on CDO-IC cleavage
- in vitro cleavage of in vitro-translated CDO-IC by purified active caspase-3 (autoradiograph, FIG. 5) (CDO-IC-D1153N): mutation of Asp^1153 to Asn (CDO-IC D1153N) strongly inhibited cleavage by caspase-3
- in vitro cleavage of in vitro-translated CDO-IC by purified active caspase-3 (autoradiograph, FIG. 5) (CDO-IC-D1153N-D1164N): Asp^1153/Asp^1164 to Asn double mutation almost completely suppressed caspase-3 cleavage
